Source: US20220403025A1
Substitutions are numbered along the chain they refer to.

B1: 1245_P02_G04 (IgG1, made in HEK) (antibody, V domains shown)
VH: QVQLQQSGPGLVKPSQTLSLTCAISGDSVSSKSAAWNWIRQSPSRGLEWLGRTYYRSKWSTDYAASVKSRITINPDTSKNQLSLQLNSVTPEDTAVYYCARTWSGYVDVWGQGTLVTVSS
VL: DIQMTQSPPALSASVGDRVTITCRASQDINDWLAWYQHKPGKAPKLLIYDASSLESGVPSRFSGSGSGTEFTLTISSLQPDDFATYYCQQSYSTPQVTFGQGTRLEIK
B2: AD3 (variant G04, made in CHO) (antibody, V domains shown)
VH: B1 VH with Q1E
VL: B1 VL
B3: AD4 (hinge modified AD3, made in CHO) (antibody, V domains shown)
VH: B1 VH with Q1E
VL: B1 VL
B4: AD3gly (defucosylated AD3 made in engineered CHO) (antibody, V domains shown)
VH: B1 VH with Q1E
VL: B1 VL
B5: 1251_P02_G10 (IgG1) (antibody, V domains shown)
VH: EVQLVESGGGLVQPGGSLRLSCAASGFTFSDYYMSWIRQAPGKGLEWVSYISSSGSTIYYADSVKGRFTISRDNAKNSLYLQMNSLRAEDTAVYYCARHSWNDAFDIWGRGTLVTVSS
VL: DIQMTQSPSSLSASVGDRVTITCRASQSISSHLNWYQQKPGKAPKLLIYAASSLQSGVPSRFSASGSGTDFTLTISSLQPEDFATYYCQQSYSTLLTFGGGTKVEIKR
B6: 1245_P01_E07 (scFv) (scFv)
scFv: QVQLVESGGGLVKPGGSLRLSCAASGFTFSDYYMSWIRQAPGKGLEWVSYISSSGSTIYYADSVKGRFTISRDNAKNSLYLQMNSLRAEDTAVYYCARVDYADAFDIWGQGTLVTVSSGGGGSGGGGSGGGASDIQMTQSPSSLSASVGDRVTIACRAGQSIGTYLNWYQQKPGKAPKLLIYVASSLQSGVPSRFSGSGSGTEFTLTISSLQPEDFATYYCQQSYSTLLTFGRGTKVEIK
B7: 1252_P01_C08 (scFv) (scFv)
scFv: EVQLLESGGGLVQPGRSLRLSCAASGFTVSSNYMSWVRQAPGKGLEWVSVIYSGGSTYYADSVKGRFTISRDNSKNTLYLQMNSLRAEDTAVYYCASPIELGAFDIWGQGTLVTVSSGGGGSGGGGSGGGASSYELTQPPSVSVAPGKTARITCGGNNIGSQSVHWYQQKPGQAPMLVIYYDSDRPSGIPERFSGSNSGNTATLTISRVEAGDEADYYCQVWDSSSDHVVFGGGTKLTVL
B8: 1245_P02_G04 (scFv) (scFv)
scFv: QVQLQQSGPGLVKPSQTLSLTCAISGDSVSSKSAAWNWIRQSPSRGLEWLGRTYYRSKWSTDYAASVKSRITINPDTSKNQLSLQLNSVTPEDTAVYYCARTWSGYVDVWGQGTLVTVSSGGGGSGGGGSGGGASDIQMTQSPPALSASVGDRVTITCRASQDINDWLAWYQHKPGKAPKLLIYDASSLESGVPSRFSGSGSGTEFTLTISSLQPDDFATYYCQQSYSTPQVTFGQGTRLEIK
B9: 1251_P02_C05 (scFv) (scFv)
scFv: EVQLLESGGGLVQPGGSLRLSCAASGFTFSSYAMSWVRQAPGKGLEWVSAISGGGGTTYSSDSVKGRFTISRDNSKNTLYLQMNSLRAEDTAVYYCARDSGVAFDIWGQGTLVTVSSGGGGSGGGGSGGGASDIQMTQSPSFLSASVGDRVTITCRASQNIRTWLAWYQQKPGRAPKLLIYDASSLESGVPSRFSGSGSGTDFTLTISSLQPEDFATYYCQQFKRYPPTFGLGTKVEIK
B10: 1141_P01_E01 (scFv) (scFv)
scFv: QVQLVQSGAEVKKPGESLKISCKGSGYSFTSYWIGWVRQMPGKGLEWMGIIYPGDSDTRYSPSFQGQVTISADKSISTAYLQWSSLKASDTAMYYCARHQVDTRTADYWGQGTLVTVSSGGGGSGGGGSGGGASQSALTQPASVSGSPGQSVTISCTGTRSDVGGYNYVSWYQHHPGKAPKLMIYEVSNRPSGVSNRFSGSKSGNTASLTISGLQAEDEADYYCSSYTSTSTLVFGGGTKLTVL
B11: 1139_P01_E04 (scFv) (scFv)
scFv: QVQLQQSGPGLVKPSQTLSLTCAISGDSVSSNSAAWNWIRQSPSRGLEWLGRTYYRSKWYNDYAVSVRSRITINPDTSKNQFSLQLNSVTPEDTAVYYCARSWNDAFDIWGQGTTVTVSSGGGGSGGGGSGGGASDIVMTQSPSTLSASIGDRVTITCRAGQSISTWLAWYQQKPGKAPKLLIYDASSLESGVPLRFSGSGSGTDFTLTISSLQPEDFATYYCQQSYSTPLTFGGGTKVEIK
B12: 1245_P02_F07 (scFv) (scFv)
scFv: QVQLQQSGPGLVKPSQTLSLTCVISGDSVSSNSAAWNWIRQSPSRGLEWLGRTYYRSKWYNDYAVSVKSRITINPDTSKNQFSLQLNSVTPEDTAVYYCARDYYYSMDVWGQGTMVTVSSGGGGSGGGGSGGGASDIQMTQSPSTLSASVGDRVTITCRASQSISSWLAWYQQKPGKAPKLLIYDASSLESGVPLRFSGSGSGTEFTLTISSLQPDDFATYYCQQSHSHPPTFGPGTKVDIK
B13: 1245_P01_G09 (scFv) (scFv)
scFv: QVQLQQSGPGLVKPSQTLSLTCAISGDSVSSNSAAWNWIRQSPSRGLEWLGRTYYGSKWYNEYALSVKSRIIINPDTSKNQFSLQLNSVTPEDTAVYYCARDYYYSMDVWGQGTLVTVSSGGGGSGGGGSGGGASDIVMTQSPSTLSASIGDRVTITCRAGQSISTWLAWYQQKPGKAPKLLIYDASSLESGVPLRFSGSGSGTEFTLAISSLQPDDFATYYCQQSYSTPVTFGQGTKVEIK
B14: 1251_P02_G10 (scFv) (scFv)
scFv: EVQLVESGGGLVQPGGSLRLSCAASGFTFSDYYMSWIRQAPGKGLEWVSYISSSGSTIYYADSVKGRFTISRDNAKNSLYLQMNSLRAEDTAVYYCARHSWNDAFDIWGRGTLVTVSSGGGGSGGGGSGGGASDIQMTQSPSSLSASVGDRVTITCRASQSISSHLNWYQQKPGKAPKLLIYAASSLQSGVPSRFSASGSGTDFTLTISSLQPEDFATYYCQQSYSTLLTFGGGTKVEIK

Target: L1 (DV1-GV4) antigen: soluble heterodimeric γδ TCR in leucine zipper format (TRDV1/TRGV4) (human)
Experiment: ELISA (DELFIA, time-resolved fluorometry) on antigen L1, titration of the mAb

L1 (DV1-GV4) antigen: soluble heterodimeric γδ TCR in leucine zipper format (TRDV1/TRGV4) (human), sequence (main, as listed by the source): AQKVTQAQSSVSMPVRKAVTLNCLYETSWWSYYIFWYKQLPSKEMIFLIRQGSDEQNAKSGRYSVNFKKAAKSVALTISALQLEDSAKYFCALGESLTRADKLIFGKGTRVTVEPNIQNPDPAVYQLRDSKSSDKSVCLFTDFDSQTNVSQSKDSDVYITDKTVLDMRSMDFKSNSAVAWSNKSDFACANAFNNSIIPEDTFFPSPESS

| Binder | EC50 (read off the curve) [µg/mL] |
| --- | --- |
| B1 | 0.07 |
| B2 | 0.07 |
| B3 | 0.07 |
| B4 | 0.07 |

Target: L1 (DV1-GV4) antigen: soluble heterodimeric γδ TCR in leucine zipper format (TRDV1/TRGV4) (human)
Experiment: SPR (MASS-2), IgG captured via protein G, L1 as analyte, steady-state 1:1 fit

| Binder | Kd [nM] |
| --- | --- |
| B5 | 829 |

Target: Vδ1 γδ T cell receptor on skin-derived γδ T cells (human)
Experiment: cell-based or functional assay

| Binder | TCR downregulation (EC50 µg/ml - 3 donors) [µg/mL] |
| --- | --- |
| B5 | 0.849 |

Target: L1 (DV1-GV4) antigen: soluble heterodimeric γδ TCR in leucine zipper format (TRDV1/TRGV4) (human)
Experiment: DELFIA affinity ranking with 100 nM biotinylated L1

| Binder | DELFIA signal, 100 nM L1 |
| --- | --- |
| B6 | 163000 |
| B7 | 1980 |
| B8 | 5900 |
| B9 | 65300 |
| B10 | 137000 |
| B11 | 23800 |
| B12 | 10400 |
| B13 | 18400 |
| B14 | 17100 |
